Data as given in publication PMC3433420, “Comprehensive Binary Interaction Mapping of SH2 Domains via Fluorescence Polarization Reveals Novel Functional Diversification of ErbB Receptors” (PLoS ONE, 2012).
Values joined by “and” are separate entries in the source; they are usually repeats but may differ in a detail not shown here. Equal values may be shown once. Non-standard residues stand in square brackets, D forms with d. No end group written: not given here. pY = N[C@@H](Cc1ccc(OP(=O)(O)O)cc1)C(=O)O; Rhodamine = not defined here

Experiments:
Assay in all cases: peptide or protein array; SH2/PTB proteins spotted on aldehyde slides, rhodamine peptide titrated in buffer B (20 mM HEPES, 100 mM KCl, 0.1% Tween-20, 5 mM DTT, pH 7.8), 1 h at room temperature; replicate assays
Conditions in all cases: both partners purified
[1] = biological target: T1, PIK3R1 tandem SH2 domains (human, UniProt P27986 1-724)
T1 construct: PIK3R1, human; also called PIK3R1-NC; source: bacterial expression, purified
T1 sequence (P27986 whole entry, the tested form may be a part): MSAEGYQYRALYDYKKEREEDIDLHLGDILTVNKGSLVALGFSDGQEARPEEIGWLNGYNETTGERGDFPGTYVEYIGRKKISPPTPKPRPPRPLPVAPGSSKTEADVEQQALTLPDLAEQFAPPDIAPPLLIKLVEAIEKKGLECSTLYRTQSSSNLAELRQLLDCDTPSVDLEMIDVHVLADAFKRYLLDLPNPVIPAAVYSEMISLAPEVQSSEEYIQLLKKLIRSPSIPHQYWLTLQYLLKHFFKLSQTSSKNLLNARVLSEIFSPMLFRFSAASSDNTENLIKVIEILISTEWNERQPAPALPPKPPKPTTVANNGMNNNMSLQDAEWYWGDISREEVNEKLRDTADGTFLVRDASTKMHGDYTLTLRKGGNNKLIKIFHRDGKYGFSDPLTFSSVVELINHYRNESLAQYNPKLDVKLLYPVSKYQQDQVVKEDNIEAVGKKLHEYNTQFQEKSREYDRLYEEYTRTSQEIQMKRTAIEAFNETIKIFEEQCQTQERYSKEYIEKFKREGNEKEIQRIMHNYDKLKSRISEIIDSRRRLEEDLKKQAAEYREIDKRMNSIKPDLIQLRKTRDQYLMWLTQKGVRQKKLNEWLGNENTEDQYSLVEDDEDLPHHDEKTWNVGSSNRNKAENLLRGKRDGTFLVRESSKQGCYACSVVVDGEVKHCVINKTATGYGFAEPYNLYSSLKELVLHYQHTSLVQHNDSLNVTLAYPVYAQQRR

[2] = biological target: T2, PLCG2 N-terminal SH2 domain (human)
T2 construct: PLCG2, human; source: bacterial expression, purified
T2 sequence (P16885 whole entry, looked up): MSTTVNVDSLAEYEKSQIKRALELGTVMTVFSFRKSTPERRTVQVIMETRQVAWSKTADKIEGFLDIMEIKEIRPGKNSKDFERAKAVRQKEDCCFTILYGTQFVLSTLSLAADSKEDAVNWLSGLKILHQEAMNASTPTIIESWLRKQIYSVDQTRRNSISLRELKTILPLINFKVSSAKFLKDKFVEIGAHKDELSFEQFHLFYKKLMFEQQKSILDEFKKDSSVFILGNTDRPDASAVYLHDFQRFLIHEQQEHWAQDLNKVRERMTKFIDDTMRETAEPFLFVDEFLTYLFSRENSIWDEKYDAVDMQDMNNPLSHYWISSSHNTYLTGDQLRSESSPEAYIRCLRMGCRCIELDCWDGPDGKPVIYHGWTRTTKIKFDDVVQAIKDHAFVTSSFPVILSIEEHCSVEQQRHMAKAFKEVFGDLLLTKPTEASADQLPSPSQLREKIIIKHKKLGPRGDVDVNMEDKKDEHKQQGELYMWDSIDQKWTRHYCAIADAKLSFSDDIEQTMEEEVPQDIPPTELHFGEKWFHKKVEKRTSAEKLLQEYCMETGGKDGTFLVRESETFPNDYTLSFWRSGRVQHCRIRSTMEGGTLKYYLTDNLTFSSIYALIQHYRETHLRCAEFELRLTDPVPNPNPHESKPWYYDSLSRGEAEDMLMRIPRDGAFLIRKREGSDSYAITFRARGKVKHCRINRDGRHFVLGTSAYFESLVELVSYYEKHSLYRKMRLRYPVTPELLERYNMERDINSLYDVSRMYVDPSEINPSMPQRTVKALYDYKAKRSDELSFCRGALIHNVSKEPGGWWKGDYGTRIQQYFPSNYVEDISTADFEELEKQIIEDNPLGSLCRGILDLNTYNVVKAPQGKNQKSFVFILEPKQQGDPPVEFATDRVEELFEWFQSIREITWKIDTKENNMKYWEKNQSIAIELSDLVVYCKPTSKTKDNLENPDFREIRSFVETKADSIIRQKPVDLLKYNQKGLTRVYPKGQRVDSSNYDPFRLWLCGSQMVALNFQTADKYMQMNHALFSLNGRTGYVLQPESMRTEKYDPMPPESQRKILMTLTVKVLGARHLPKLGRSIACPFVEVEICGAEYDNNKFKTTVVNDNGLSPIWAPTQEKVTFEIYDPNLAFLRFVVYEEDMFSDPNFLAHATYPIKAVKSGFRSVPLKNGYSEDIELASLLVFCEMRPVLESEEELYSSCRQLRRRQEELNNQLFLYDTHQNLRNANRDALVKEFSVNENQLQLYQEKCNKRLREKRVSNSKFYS

DAPP1 SH2 domain = biological target: T3, DAPP1 SH2 domain (human, UniProt Q9UN19 35-129)
T3 construct: DAPP1, human; source: bacterial expression, purified
T3 sequence (looked up): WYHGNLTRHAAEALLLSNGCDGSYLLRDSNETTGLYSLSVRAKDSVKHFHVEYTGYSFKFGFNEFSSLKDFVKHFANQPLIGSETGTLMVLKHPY

SOCS5 SH2 domain = biological target: T4, SOCS5 SH2 domain (human, UniProt O75159 381-476)
T4 construct: SOCS5, human; source: bacterial expression, purified
T4 sequence (looked up): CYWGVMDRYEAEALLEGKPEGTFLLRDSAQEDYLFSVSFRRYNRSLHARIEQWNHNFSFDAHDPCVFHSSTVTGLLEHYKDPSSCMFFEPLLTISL

ZAP70 tandem SH2 domains = biological target: T5, ZAP70 tandem SH2 domains (human)
T5 construct: ZAP70, human; also called ZAP70-NC; source: bacterial expression, purified
T5 sequence (P43403 whole entry, the tested form may be a part): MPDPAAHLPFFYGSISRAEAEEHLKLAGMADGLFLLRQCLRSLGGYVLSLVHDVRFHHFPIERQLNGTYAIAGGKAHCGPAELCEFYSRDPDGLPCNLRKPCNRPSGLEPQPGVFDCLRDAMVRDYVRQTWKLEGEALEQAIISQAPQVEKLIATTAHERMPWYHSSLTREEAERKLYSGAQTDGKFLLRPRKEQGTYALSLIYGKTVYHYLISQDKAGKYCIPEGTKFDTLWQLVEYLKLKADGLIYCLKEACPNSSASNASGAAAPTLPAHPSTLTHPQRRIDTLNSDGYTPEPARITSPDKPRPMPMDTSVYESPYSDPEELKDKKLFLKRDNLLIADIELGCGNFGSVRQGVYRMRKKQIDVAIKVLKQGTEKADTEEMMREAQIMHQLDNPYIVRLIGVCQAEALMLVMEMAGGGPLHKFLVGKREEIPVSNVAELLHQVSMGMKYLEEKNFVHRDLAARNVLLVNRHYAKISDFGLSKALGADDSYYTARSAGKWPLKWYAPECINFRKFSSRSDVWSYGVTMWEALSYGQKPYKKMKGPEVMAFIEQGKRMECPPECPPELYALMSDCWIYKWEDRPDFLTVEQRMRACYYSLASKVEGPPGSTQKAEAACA

PTPN6 tandem SH2 domains = biological target: T6, PTPN6 tandem SH2 domains (human)
T6 construct: PTPN6, human; also called PTPN6-NC; source: bacterial expression, purified

[3] = biological target: T7, SYK N-terminal SH2 domain (human)
T7 construct: SYK, human; source: bacterial expression, purified

MATK SH2 domain = biological target: T8, MATK SH2 domain (human, UniProt P42679 122-211)
T8 construct: MATK, human; source: bacterial expression, purified
T8 sequence (looked up): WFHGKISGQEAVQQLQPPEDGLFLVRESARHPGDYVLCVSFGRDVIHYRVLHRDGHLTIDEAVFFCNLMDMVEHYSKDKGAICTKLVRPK

[4] = biological target: T9, SYK C-terminal SH2 domain (human)
T9 construct: SYK, human; source: bacterial expression, purified

Binder: Rhodamine-ETDG[pY]VAPLTCSD (reading uncertain) [ErbB2 pY1127 phosphopeptide, rhodamine-labelled, for protein microarrays]
- Kd [1]: 10.9 nM and 10 nM
- Kd [2]: 4160 nM
- Kd (DAPP1 SH2 domain): 2670 nM
- Kd (SOCS5 SH2 domain): 698 nM
- Kd (ZAP70 tandem SH2 domains): 2010 nM and 2410 nM
- Kd (PTPN6 tandem SH2 domains): 1620 nM
- Kd [3]: 3210 nM and 2330 nM
- Kd (MATK SH2 domain): 4400 nM
- Kd [4]: 1920 nM and 2390 nM
